{"source": "paper PMC7429351", "about": "“Comparison of ligand binding and conformational stability of human calmodulin with its homolog from the malaria parasite Plasmodium falciparum” (FASEB BioAdvances, 2020)", "key": {"[1]": {"test": "Differential scanning calorimetry thermal denaturation", "assay_type": "physicochemical", "details": "DSC; for T m1 / ΔH1 / ΔHv1: first transition; for T m1 / T m2: 1°C/min; for ΔH1 / ΔH2: calorimetric enthalpy; for ΔHv1 / ΔHv2: van't Hoff enthalpy; for T m2 / ΔH2 / ΔHv2: second transition", "description": "Thermograms were measured in the standard assay buffer complemented with 1 mmol/L EGTA or CaCl2 using a VP‐DSC microcalorimeter (MicroCal). Protein samples at 0.75 mg/mL were heated at a scan rate of 1°C/min with no feedback. Data analysis was performed with the Origin software provided by MicroCal."}, "[2]": {"test": "CD melting curves at 222 nm", "assay_type": "physicochemical", "details": "CD 222 nm", "description": "CD spectra were recorded on Jasco J‐720 and J‐810 spectropolarimeters (Jasco) using quartz cuvettes with pathlengths of 1 mm in the far‐UV and 1 cm in the near‐UV range. Samples were measured in the standard assay buffer complemented with 1 mmol/L EGTA or CaCl2 at a protein concentration of 5‐8 μmol/L in the far‐UV and 210 μmol/L in the near‐UV. Spectra were recorded at least three times at a scan speed of 20 nm/min using a bandwidth and response time of 1 nm and 4 seconds, respectively. Secondary structure content was estimated using the BeStSel method available at http://bestsel.elte.hu. ^24 Melting curves were measured in standard assay buffer or 25 mmol/L phosphate, pH 7.0, in the presence of 1 mmol/L EGTA or saturating levels of CaCl2 monitoring the ellipticity at 222 nm for secondary structure changes or at 280 nm to monitor the signal of Tyr residues. A heating rate of 1 or 2°C/min was used. In a well‐sealed 1 mm‐cell, heating up to 110°C was possible."}, "[3]": {"test": "Differential scanning fluorimetry (nanoDSF, intrinsic fluorescence)", "assay_type": "physicochemical", "details": "DSF, 5°C/min, C-domain Tyr fluorescence", "description": "Denaturation curves were determined by detecting intrinsic protein fluorescence as a function of temperature using the Prometheus instrument (NanoTemper Technologies). Protein samples at 1.0‐1.5 mg/mL were heated at a scan rate of 5°C/min up to 110°C in the standard assay buffer using the designated set and capillaries. Data analysis was performed with the built‐in analysis software."}, "Pf CaM [4]": {"biological_target": "T1, Pf CaM (Plasmodium falciparum, UniProt P62203)", "T1 construct": "properties of the whole protein can be explored with differential scanning calorimetry; made in house; host or cells: E coli", "test": "biochemical", "assay_type": "binding", "details": "ITC", "from_the_text": "(§1) Titration curves were fitted with the models provided by the built‐in Origin software (MicroCal.)."}, "Pf CaM [5]": {"biological_target": "T1, Pf CaM", "test": "Calcineurin activity assay, inhibition of Pf CaM function", "assay_type": "biochemical", "details": "for inhibition of Pf CaM function in CaN activity assay: screen of selected Malaria Box compounds", "description": "(§2) Calcineurin (PPase‐2B, CaN) was purchased from Promega (V6361, isolated from bovine brain). Dephosphorylation of the substrate p‐nitrophenyl phosphate (PNPP, Sigma, 1040) was followed by monitoring the increase in absorbance at 405 nm using a Perkin Elmer EnSpire microplate reader. The CaN activity was assayed by measuring the initial velocities at 28°C in 50 mmol/L Tris, pH 7.5 containing 0.001 unit/μL CaN, 0.1 mg/mL BSA, 20 mmol/L PNPP, 1 mmol/L NiCl2, and various amounts of CaM to determine dose‐response curves for CaN activation by CaM."}, "human CaM [6]": {"biological_target": "T2, human CaM (Homo sapiens, UniProt P0DP23)", "T2 construct": "properties of the whole protein can be explored with differential scanning calorimetry; made in house; host or cells: E coli", "test": "ANS binding fluorescence, human CaM", "details": "10 μmol/L ANS"}, "Pf CaM [7]": {"biological_target": "T1, Pf CaM", "test": "ANS binding fluorescence, Pf CaM", "details": "10 μmol/L ANS", "description": "(§3) Spectra were collected using a Jobin Yvon Fluoromax‐3 spectrofluorometer at 25°C in the standard assay buffer containing either 1 mmol/L EGTA or 1 mmol/L CaCl2. Spectra were recorded three times, averaged, and corrected by subtracting the appropriate blank. Tyrosine fluorescence was excited at 274 nm, the emission was detected between 285 and 370 nm, and the intensities were recorded at 303 nm. In ANS binding assays, 10 μmol/L of ANS (8‐anilinonaphtalene‐1‐sulfonic acid, Fluka, 10417) was excited at 388 nm in the presence of 2 μmol/L CaM in standard assay buffer, and the emission was monitored from 410 to 600 nm. In experiments with dansyl‐labeled CaM, the fluorophore was excited at 340 nm, and the emission was monitored from 400 to 600 nm."}, "bovine brain CaN": {"biological_target": "T3, bovine brain CaN (Bos taurus, UniProt P48452)", "T3 construct": "purchased Promega V6361; host or cells: bovine brain", "T3 sequence (P63099 2-170 partner limits assumed, other chains not shown)": "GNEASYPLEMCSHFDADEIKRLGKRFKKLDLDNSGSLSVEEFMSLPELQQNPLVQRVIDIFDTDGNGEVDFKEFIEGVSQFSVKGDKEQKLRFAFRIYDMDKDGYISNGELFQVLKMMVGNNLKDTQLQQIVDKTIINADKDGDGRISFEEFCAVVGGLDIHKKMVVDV", "test": "Calcineurin activation by CaM", "assay_type": "biochemical", "details": "PNPP substrate, 28°C", "description": "as §2"}, "human MLCK": {"biological_target": "T4, human MLCK (Homo sapiens, UniProt Q15746)", "T4 construct": "GST; purchased Sigma M9197", "T4 sequence (Q15746 1425-1771 limits assumed)": "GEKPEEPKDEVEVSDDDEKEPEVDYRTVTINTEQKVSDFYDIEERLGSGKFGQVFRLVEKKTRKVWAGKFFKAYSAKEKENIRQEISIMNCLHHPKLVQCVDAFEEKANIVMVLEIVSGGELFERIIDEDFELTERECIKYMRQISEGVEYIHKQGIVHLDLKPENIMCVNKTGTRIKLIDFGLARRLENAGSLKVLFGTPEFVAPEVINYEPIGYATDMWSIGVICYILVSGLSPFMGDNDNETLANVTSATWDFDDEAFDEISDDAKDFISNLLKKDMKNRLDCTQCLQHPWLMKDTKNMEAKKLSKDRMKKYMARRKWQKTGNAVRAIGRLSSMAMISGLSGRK", "test": "MLCK activation by CaM (ADP-Glow)", "assay_type": "biochemical", "details": "30 minutes, room temperature", "description": "Myosin light chain kinase (MLCK) was purchased from Sigma (M9197, human, recombinant, GST‐tagged). Enzyme activity was measured in standard buffer complemented with 0.5 mmol/L CaCl2, 2.5 mmol/L MgCl2, and 0.1 mg/mL BSA. When measuring activation by CaM, 20 μL reaction mixtures contained 3.5 ng/μL MLCK, 0.1 mg/mL MLCK substrate (Sigma SCP0196), 50 μmol/L ATP, 0.5 mmol/L DTT, and various amounts of CaM. Samples were incubated for 30 minutes at room temperature then ADP formed during the kinase reaction was detected using the ADP‐Glow Kinase Assay kit (Promega) according to the manufacturer's instructions. Luminescence values proportional to ADP concentration were normalized to maximal intensities obtained at saturating CaM concentrations."}, "bovine PDE": {"tested_on": "bovine PDE", "test": "PDE activation by CaM", "assay_type": "biochemical", "details": "150 nmol/L CaM, 1 mmol/L CaCl2"}, "[8]": {"biological_target": "T5, human CaM (dansyl-labeled) (Homo sapiens, UniProt P0DP23)", "T5 construct": "properties of the whole protein can be explored with differential scanning calorimetry; made in house; host or cells: E coli", "test": "Dansyl-CaM fluorescence titration, human CaM", "assay_type": "binding", "details": "hyperbolic fit", "description": "as §3"}, "dansyl-labeled Pf CaM": {"biological_target": "T6, dansyl-labeled Pf CaM (Plasmodium falciparum, UniProt P62203)", "T6 construct": "properties of the whole protein can be explored with differential scanning calorimetry; made in house; host or cells: E coli", "test": "Dansyl-CaM fluorescence titration, Pf CaM", "assay_type": "binding", "details": "hyperbolic fit", "description": "as §3"}, "human CaM [9]": {"biological_target": "T2, human CaM", "test": "Calcineurin activity assay, inhibition of human CaM function", "assay_type": "biochemical", "description": "as §2"}, "human CaM [10]": {"biological_target": "T2, human CaM", "test": "Isothermal titration calorimetry, ligand titrated with human CaCaM", "assay_type": "binding", "details": "ITC, 25°C, 1 mmol/L CaCl2, one set of sites model", "from_the_text": "as §1"}, "[11]": {"tested_on": "3D7 chloroquine sensitive but sulfadoxine resistant strain of P falciparum", "design": "method as in earlier work", "details": "blood stage, 3D7 strain; ref MMV website (https://www.mmv.org/mmv-open/malaria-box/malaria-box-supporting-information); cited from earlier work"}}, "note": "Values joined by “and” are separate entries in the source; they are usually repeats but may differ in a detail not shown here. Equal values may be shown once. Read-outs that look alike come from different tables or passages of the source.", "data": [{"compound": "Pf CaCaM: Plasmodium falciparum calmodulin, Ca2+‐saturated form", "values": [{"measurement": "T m1", "setting": "[1]", "result": "92.6 ± 0.1", "unit": "°C"}, {"measurement": "ΔH1", "setting": "[1]", "result": "47.8 ± 0.3", "unit": "kcal/mol"}, {"measurement": "ΔHv1", "setting": "[1]", "result": "44.5 ± 0.3", "unit": "kcal/mol"}, {"measurement": "T m2", "setting": "[1]", "result": "125.9 ± 0.2", "unit": "°C"}, {"measurement": "ΔH2", "setting": "[1]", "result": "97.9 ± 2.2", "unit": "kcal/mol"}, {"measurement": "ΔHv2", "setting": "[1]", "result": "65.7 ± 0.8", "unit": "kcal/mol"}]}, {"compound": "Pf apoCaM: Plasmodium falciparum calmodulin, Ca2+-free apo form", "values": [{"measurement": "T m", "setting": "[2]; in phosphate buffer of low ionic strength", "result": "51.2 ± 0.1", "unit": "°C"}, {"measurement": "T m", "setting": "[2]; standard assay buffer", "result": "54.4 ± 0.2", "unit": "°C"}, {"measurement": "T m", "setting": "[3]", "result": "51.2 ± 0.6", "unit": "°C"}, {"measurement": "T m1", "setting": "[1]", "result": "54.7 ± 0.2", "unit": "°C"}, {"measurement": "ΔH1", "setting": "[1]", "result": "41.2 ± 1.2", "unit": "kcal/mol"}, {"measurement": "ΔHv1", "setting": "[1]", "result": "48.1 ± 0.4", "unit": "kcal/mol"}, {"measurement": "T m2", "setting": "[1]", "result": "64.3 ± 0.1", "unit": "°C"}, {"measurement": "ΔH2", "setting": "[1]", "result": "33.4 ± 1.2", "unit": "kcal/mol"}, {"measurement": "ΔHv2", "setting": "[1]", "result": "53.5 ± 0.6", "unit": "kcal/mol"}]}, {"compound": "CC[C@H](C)[C@H](NC(=O)CN)C(=O)NCC(=O)N[C@@H](C)C(=O)N[C@H](C(=O)N[C@@H](CC(C)C)C(=O)N[C@@H](CCCCN)C(=O)N[C@H](C(=O)N[C@@H](CC(C)C)C(=O)N[C@H](C(=O)N[C@H](C(=O)NCC(=O)N[C@@H](CC(C)C)C(=O)N1CCC[C@H]1C(=O)N[C@@H](C)C(=O)N[C@@H](CC(C)C)C(=O)N[C@H](C(=O)N[C@@H](CO)C(=O)N[C@@H](Cc1c[nH]c2ccccc12)C(=O)N[C@H](C(=O)N[C@@H](CCCCN)C(=O)N[C@@H](CCCNC(=N)N)C(=O)N[C@@H](CCCCN)C(=O)N[C@@H](CCCNC(=N)N)C(=O)N[C@@H](CCC(N)=O)C(=O)N[C@@H](CCC(N)=O)C(N)=O)[C@@H](C)CC)[C@@H](C)CC)[C@@H](C)O)[C@@H](C)O)C(C)C)C(C)C", "note": "[melittin]", "values": [{"measurement": "Kd", "setting": "Pf CaM [4]; K d, one set of sites model, upper limit", "result": "< 30", "unit": "nM"}]}, {"compound": "O=C(NCC(c1ccsc1)N1CCCCCC1)c1ccc(C(F)(F)F)cc1", "note": "(stereo not shown) [MMV396672]", "values": [{"measurement": "inhibition of Pf CaM function in CaN activity assay", "setting": "Pf CaM [5]", "result": "showed inhibitory effect"}]}, {"compound": "O=C(Nc1ccc(F)c(Cl)c1)Nc1ccc(Cl)c(Cl)c1", "note": "[MMV665953]", "values": [{"measurement": "inhibition of Pf CaM function in CaN activity assay", "setting": "Pf CaM [5]", "result": "showed inhibitory effect"}]}, {"compound": "O=S(=O)(O)c1cccc2cccc(Nc3ccccc3)c12", "note": "[ANS, 8‐anilinonaphthalene‐1‐sulfonic acid]", "values": [{"measurement": "ANS binding (fluorescence)", "setting": "human CaM [6]; 2 μmol/L CaCaM", "result": "remarkable ANS binding"}, {"measurement": "ANS binding (fluorescence)", "setting": "human CaM [6]; 2 μmol/L apoprotein", "result": "no ANS binding"}, {"measurement": "ANS binding (fluorescence)", "setting": "Pf CaM [7]; 2 μmol/L CaCaM, compared with human CaCaM", "result": "approximately twofold higher fluorescence intensity"}, {"measurement": "ANS binding (fluorescence)", "setting": "Pf CaM [7]; 2 μmol/L apoprotein", "result": "no ANS binding"}]}, {"compound": "Pf CaM: Recombinant Plasmodium falciparum calmodulin (Uniprot P62203) expressed in E coli", "values": [{"measurement": "EC50", "setting": "bovine brain CaN", "result": 1, "unit": "nM"}, {"measurement": "activation by CaM (elevation of the basal activity)", "setting": "bovine brain CaN", "result": 2.1, "unit": "fold"}, {"measurement": "EC50", "setting": "human MLCK", "result": "~15", "unit": "nM"}, {"measurement": "T m", "setting": "[3]", "result": "~ 51 °C"}, {"measurement": "increase of PDE activity", "setting": "bovine PDE", "result": "the same activation effect"}]}, {"compound": "Cl.N=c1n(CCN2CCCCC2)c2ccccc2n1CC(O)c1cccc(Br)c1", "note": "(stereo not shown) [MMV665902]", "values": [{"measurement": "inhibition of Pf CaM function in CaN activity assay", "setting": "Pf CaM [5]", "result": "showed inhibitory effect"}]}, {"compound": "OC(CNCC1CCCO1)Cn1c2ccc(Cl)cc2c2cc(Cl)ccc21", "note": "(stereo not shown) [MMV396736]", "values": [{"measurement": "Kd", "setting": "[8]", "result": "1800 ± 400", "unit": "nM"}, {"measurement": "IC50", "setting": "Pf CaM [5]", "result": "6200 ± 1500", "unit": "nM"}, {"measurement": "inhibition of Pf CaM function in CaN activity assay", "setting": "Pf CaM [5]", "result": "showed inhibitory effect"}, {"measurement": "Kd", "setting": "dansyl-labeled Pf CaM", "result": "2400 ± 400", "unit": "nM"}, {"measurement": "IC50", "setting": "human CaM [9]", "result": "1600 ± 760", "unit": "nM"}, {"measurement": "Kd", "setting": "human CaM [10]", "result": "2500 ± 500", "unit": "nM"}, {"measurement": "Kd", "setting": "Pf CaM [4]; 25°C, 1 mmol/L CaCl2, one set of sites model, read-out: K d", "result": "2500 ± 200", "unit": "nM"}, {"measurement": "stoichiometry n", "setting": "Pf CaM [4]; one set of sites model", "result": "~ 8 and 7.4 ± 0.1"}, {"measurement": "EC50", "setting": "[11]", "result": 1060, "unit": "nM"}]}]}
